The assay concerns the target Human CD3eg linker (human). Briefly: SPR; fold vs parent H183/L072.

Residue numbers refer to the chain shown, from its start. Names and notes keep the numbering of the source.

Sequence of Human CD3eg linker (human) (chain, as listed by the source limits assumed): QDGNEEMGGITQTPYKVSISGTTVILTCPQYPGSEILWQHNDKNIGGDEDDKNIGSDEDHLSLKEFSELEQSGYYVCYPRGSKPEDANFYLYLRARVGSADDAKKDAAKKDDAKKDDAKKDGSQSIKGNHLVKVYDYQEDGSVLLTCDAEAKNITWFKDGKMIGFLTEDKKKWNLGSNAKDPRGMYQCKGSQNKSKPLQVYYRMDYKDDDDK

B1: H183/L072 VL H27dI (antibody, name in Kabat numbering, V domains shown)
VH: QVQLVESGGGLVQPGRSLRLSCAASGFTFSNAWMHWVRQAPGKGLEWVAQIKDKGNAYAAYYAPSVKGRFTISRDDSKNSIYLQMNSLKTEDTAVYYCHYVHYASASTVLPAFGVDAWGQGTTVTVSS
VL: DIVMTQSPLSLPVTPGEPASISCQASQELVIMNRNTYLHWYQQKPGQAPRLLIYKVSNRFPGVPDRFSGSGSGTDFTLKISRVEAEDVGVYYCAQGTSVPFTFGQGTKLEIK
Consider B1, for which the fold change of affinity came to 0 fold.

B2: H183/L072 VL H34I (antibody, name in Kabat numbering, V domains shown)
VH: B1 VH
VL: B1 VL with I31H, H39I
Regarding B2, the fold change of affinity stood at 0 fold.

B3: H183/L072 VL A25L (antibody, name in Kabat numbering, V domains shown)
VH: B1 VH
VL: B1 VL with A25L, I31H
Turning to B3, the fold change of affinity is 0 fold.

B4: H183/L072 VL H34V (antibody, name in Kabat numbering, V domains shown)
VH: B1 VH
VL: B1 VL with I31H, H39V
In the case of B4, the fold change of affinity was determined as 0 fold.

B5: H183/L072 VL H27dV (antibody, name in Kabat numbering, V domains shown)
VH: B1 VH
VL: B1 VL with I31V
Turning to B5, the fold change of affinity came out at 0 fold.

B6: H183/L072 VL H27dP (antibody, name in Kabat numbering, V domains shown)
VH: B1 VH
VL: B1 VL with I31P
On to B6, for which the fold change of affinity was found to be 0 fold.

B7: H183/L072 VL V27cP (antibody, name in Kabat numbering, V domains shown)
VH: B1 VH
VL: B1 VL with V30P, I31H
Turning to B7, the fold change of affinity worked out at 0 fold.

B8: H183/L072 VL H27dR (antibody, name in Kabat numbering, V domains shown)
VH: B1 VH
VL: B1 VL with I31R
As to B8, the fold change of affinity worked out at 0 fold.

B9: H183/L072 VL Y32V (antibody, name in Kabat numbering, V domains shown)
VH: B1 VH
VL: B1 VL with I31H, Y37V
With B9, the fold change of affinity was 0 fold.

B10: H183/L072 VL N28P (antibody, name in Kabat numbering, V domains shown)
VH: B1 VH
VL: B1 VL with I31H, N33P
As for B10, the fold change of affinity is 0 fold.

B11: H183/L072 VL H34M (antibody, name in Kabat numbering, V domains shown)
VH: B1 VH
VL: B1 VL with I31H, H39M
Turning to B11, the fold change of affinity was 0 fold.

B12: H183/L072 VL Y32M (antibody, name in Kabat numbering, V domains shown)
VH: B1 VH
VL: B1 VL with I31H, Y37M
In the case of B12, the fold change of affinity came out at 0 fold.

B13: H183/L072 VL L33I (antibody, name in Kabat numbering, V domains shown)
VH: B1 VH
VL: B1 VL with I31H, L38I
Take B13: the fold change of affinity was 0 fold.

B14: H183/L072 VL Q24P (antibody, name in Kabat numbering, V domains shown)
VH: B1 VH
VL: B1 VL with Q24P, I31H
In the case of B14, the fold change of affinity was determined as 0 fold.

B15: H183/L072 VL T31M (antibody, name in Kabat numbering, V domains shown)
VH: B1 VH
VL: B1 VL with I31H, T36M
Consider B15, for which the fold change of affinity is 0 fold.

B16: H183/L072 VL Y32I (antibody, name in Kabat numbering, V domains shown)
VH: B1 VH
VL: B1 VL with I31H, Y37I
Turning to B16, the fold change of affinity was 0 fold.

B17: H183/L072 VL H27dL (antibody, name in Kabat numbering, V domains shown)
VH: B1 VH
VL: B1 VL with I31L
Consider B17, for which the fold change of affinity is 0 fold.

B18: H183/L072 VL L27bG (antibody, name in Kabat numbering, V domains shown)
VH: B1 VH
VL: B1 VL with L29G, I31H
With B18, the fold change of affinity turned out to be 0 fold.

B19: H183/L072 VL N28M (antibody, name in Kabat numbering, V domains shown)
VH: B1 VH
VL: B1 VL with I31H, N33M
B19: the fold change of affinity amounted to 0 fold.

B20: H183/L072 VL H34P (antibody, name in Kabat numbering, V domains shown)
VH: B1 VH
VL: B1 VL with I31H, H39P
Consider B20, for which the fold change of affinity was determined as 0 fold.

B21: H183/L072 VL R29P (antibody, name in Kabat numbering, V domains shown)
VH: B1 VH
VL: B1 VL with I31H, R34P
For B21, the fold change of affinity is 0 fold.

B22: H183/L072 VL N28V (antibody, name in Kabat numbering, V domains shown)
VH: B1 VH
VL: B1 VL with I31H, N33V
For B22, the fold change of affinity was 0 fold.

B23: H183/L072 VL Q27P (antibody, name in Kabat numbering, V domains shown)
VH: B1 VH
VL: B1 VL with Q27P, I31H
B23: the fold change of affinity turned out to be 0 fold.

B24: H183/L072 VL Y32P (antibody, name in Kabat numbering, V domains shown)
VH: B1 VH
VL: B1 VL with I31H, Y37P
In the case of B24, the fold change of affinity was 0 fold.

B25: H183/L072 VL L33P (antibody, name in Kabat numbering, V domains shown)
VH: B1 VH
VL: B1 VL with I31H, L38P
For B25, the fold change of affinity is 0 fold.

B26: H183/L072 VL H27dM (antibody, name in Kabat numbering, V domains shown)
VH: B1 VH
VL: B1 VL with I31M
Take B26: the fold change of affinity came out at 0 fold.

B27: H183/L072 VL N28L (antibody, name in Kabat numbering, V domains shown)
VH: B1 VH
VL: B1 VL with I31H, N33L
Take B27: the fold change of affinity was 0 fold.

B28: H183/L072 VL V27cG (antibody, name in Kabat numbering, V domains shown)
VH: B1 VH
VL: B1 VL with V30G, I31H
On to B28, for which the fold change of affinity came out at 0 fold.

B29: H183/L072 VL N28I (antibody, name in Kabat numbering, V domains shown)
VH: B1 VH
VL: B1 VL with I31H, N33I
Consider B29, for which the fold change of affinity came to 0 fold.

B30: H183/L072 VL T31P (antibody, name in Kabat numbering, V domains shown)
VH: B1 VH
VL: B1 VL with I31H, T36P
Consider B30, for which the fold change of affinity came to 0 fold.

B31: H183/L072 VL N30P (antibody, name in Kabat numbering, V domains shown)
VH: B1 VH
VL: B1 VL with I31H, N35P
For the molecule B31, the fold change of affinity was found to be 0 fold.

(Values after patent US20210388087A1.)
